Data taken from paper PMC6765261 (Proceedings of the National Academy of Sciences of the …, 2019).

B1: CCT2 subunit of yeast TRiC/CCT (natural protein, Saccharomyces cerevisiae, UniProt P39076 1-527, looked up)
chain: MSVQIFGDQVTEERAENARLSAFVGAIAVGDLVKSTLGPKGMDKLLQSASSNTCMVTNDGATILKSIPLDNPAAKVLVNISKVQDDEVGDGTTSVTVLSAELLREAEKLIDQSKIHPQTIIEGYRLASAAALDALTKAAVDNSHDKTMFREDLIHIAKTTLSSKILSQDKDHFAELATNAILRLKGSTNLEHIQIIKILGGKLSDSFLDEGFILAKKFGNNQPKRIENAKILIANTTLDTDKVKIFGTKFKVDSTAKLAQLEKAEREKMKNKIAKISKFGINTFINRQLIYDYPEQLFTDLGINSIEHADFEGVERLALVTGGEVVSTFDEPSKCKLGECDVIEEIMLGEQPFLKFSGCKAGEACTIVLRGATDQTLDEAERSLHDALSVLSQTTKETRTVLGGGCAEMVMSKAVDTEAQNIDGKKSLAVEAFARALRQLPTILADNAGFDSSELVSKLRSSIYNGISTSGLDLNNGTIADMRQLGIVESYKLKRAVVSSASEAAEVLLRVDNIIRARPRTANRQHM
B2: CCT6 subunit of yeast TRiC/CCT (natural protein)
chain: not shown

Biological target: the molecule itself
Test: cryo-EM structure

Protein	binding result
B1	binds
B2	binds
